Laboratory results from article PMC8395514, “Characterization of Class V DyP-Type Peroxidase SaDyP1 from Streptomyces avermitilis and Evaluation of SaDyPs Expression in Mycelium” (International Journal of Molecular Sciences, 2021).

T1: SaDyP1 (Streptomyces avermitilis, UniProt Q82QF8)
T1 construct: gene SAVERM_549
T1 sequence (Q82QF8 1-442): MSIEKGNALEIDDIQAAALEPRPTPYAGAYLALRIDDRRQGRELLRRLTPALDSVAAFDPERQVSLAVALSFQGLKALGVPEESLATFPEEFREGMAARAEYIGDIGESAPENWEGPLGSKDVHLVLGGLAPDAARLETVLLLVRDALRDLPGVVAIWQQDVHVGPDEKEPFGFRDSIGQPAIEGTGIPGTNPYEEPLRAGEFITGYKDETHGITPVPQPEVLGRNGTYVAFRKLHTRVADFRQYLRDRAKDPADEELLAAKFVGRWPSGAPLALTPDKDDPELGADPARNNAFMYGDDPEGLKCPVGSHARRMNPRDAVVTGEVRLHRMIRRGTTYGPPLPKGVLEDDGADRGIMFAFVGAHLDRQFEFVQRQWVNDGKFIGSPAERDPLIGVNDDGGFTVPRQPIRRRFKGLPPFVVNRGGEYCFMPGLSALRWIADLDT


Experiments:
SaDyP1 = molecular target: T1, SaDyP1; test: initial-rate peroxidase assay, absorbance […] nm, Haldane fit; assay type: biochemical; conditions: 0.20 mM H2O2, 25 mM citrate, pH 4.0 in Table 3 and methods (pH 4.5 in Figure 5 legend), substrate inhibition model; substrate inhibition constant (Haldane)
purified protein [1] = substrate: CCn1c(=NN=c2sc3cc(S(=O)(=O)O)ccc3n2CC)sc2cc(S(=O)(=O)O)ccc21; test: purified protein; assay type: biochemical, Streptomyces avermitilis; conditions: 0.20 mM H2O2, 25 mM citrate, pH 4.0 in Table 3 and methods (pH 4.5 in Figure 5 legend), substrate inhibition model
purified protein [2] = substrate: COc1cccc(OC)c1O; test: purified protein; assay type: biochemical, Streptomyces avermitilis; conditions: 0.20 mM H2O2, 25 mM citrate, pH 4.0

Ki (SaDyP1) [mM] | Molecule | Km (purified protein [1]) [µM] | kcat (purified protein [1]) [s⁻¹] | kcat/Km (purified protein [1]) [M⁻¹ s⁻¹] | Km (purified protein [2]) [µM] | kcat (purified protein [2]) [s⁻¹] | kcat/Km (purified protein [2]) [M⁻¹ s⁻¹]
13 | CCn1c(=NN=c2sc3cc(S(=O)(=O)O)ccc3n2CC)sc2cc(S(=O)(=O)O)ccc21 [ABTS, 2,2′-azinobis [3-ethylbenzothiazoline-6-sulfonic acid]] |  |  |  |  |  | 
 | SaDyP1 (Streptomyces avermitilis MA-4680 = NBRC 14893) (protein) MSIEKGNALEIDDIQAAALEPRPTPYAGAYLALRIDDRRQGRELLRRLTPALDSVAAFDPERQVSLAVALSFQGLKALGVPEESLATFPEEFREGMAARAEYIGDIGESAPENWEGPLGSKDVHLVLGGLAPDAARLETVLLLVRDALRDLPGVVAIWQQDVHVGPDEKEPFGFRDSIGQPAIEGTGIPGTNPYEEPLRAGEFITGYKDETHGITPVPQPEVLGRNGTYVAFRKLHTRVADFRQYLRDRAKDPADEELLAAKFVGRWPSGAPLALTPDKDDPELGADPARNNAFMYGDDPEGLKCPVGSHARRMNPRDAVVTGEVRLHRMIRRGTTYGPPLPKGVLEDDGADRGIMFAFVGAHLDRQFEFVQRQWVNDGKFIGSPAERDPLIGVNDDGGFTVPRQPIRRRFKGLPPFVVNRGGEYCFMPGLSALRWIADLDT | 1200 | 2.8 | 2400 | 610 | 0.23 | 380
